What is called kon is the rate constant with which the complex forms. One may read the Kd as the concentration at which binding is half-saturated. Usually koff stands for the rate constant with which the complex falls apart.

Consider nine molecules from patent US20260184775A1 (Chugai, published 2026).

Residue numbers refer to the chain shown, from its start.

Assay [1] concerns the target T1, recombinant human latent TGF-beta 1 (Flag-tagged human latent TGF-beta 1) (human, UniProt P01137 34-390).
T1 construct: Latent form: LAP plus mature TGF-beta 1; also called human recombinant latent TGF-beta 1; SLC
Put plainly: SPR, Biacore T200, 37 C, pH 7.4; antibody captured by anti-human Fc, latent TGF-beta 1 at 12.5 to 200 nM as analyte; 1:1 model. How it is done: (§1) The affinities of anti-latent TGF-beta 1 antibodies binding to human latent TGF-beta 1 at pH 7.4 were determined at 37 degrees C. using Biacore T200 instrument (GE Healthcare). Anti-human Fc (GE Healthcare) was immobilized onto all flow cells of a CM4 sensor chip using an amine coupling kit (GE Healthcare). All antibodies and analytes were prepared in ACES pH 7.4 containing 20 mM ACES, 150 mM NaCl, 1.2 mM CaCl₂, 0.05% Tween 20, and 0.005% NaN₃. Each antibody was captured onto the sensor surface by anti-human Fc. Antibody capture levels were aimed at 300 resonance unit (RU). Recombinant human latent TGF-beta 1 was injected at a concentration of 12.5 to 200 nM prepared by two-fold serial dilution, followed by dissociation. Sensor surface was regenerated each cycle with 3M MgCl₂.
Background: SPR reads the build-up and loss of mass on a sensor chip optically.

Assay [2] has as its target T1, recombinant human latent TGF-beta 1 …. As to the kind of experiment: SPR, Biacore T200, 37 C, pH 7.4; antibody captured by anti-human Fc; 1:1 model; footnote: slow off rate <1E-05, KD cannot be uniquely determined. How it is done:
as §1

The next assay addresses T2, mouse mature TGF-beta 1 (mouse, UniProt P04202 279-390).
T2 construct: mature; also the active TGF-beta 1 released in the mouse PBMC co-culture assay
As to the kind of experiment: ELISA on plate-coated mouse mature TGF-beta 1, detection with anti-human IgG-HRP. How it is done:
384-well plate was coated with mouse mature TGF-beta 1 for overnight at 4 degrees C. After four times washing with TBS-T, the plate was blocked with blocking buffer (1×TBS/tween20+0.5% BSA+1× Block ace) for 2 hours at room temperature. After four times washing with TBS-T, antibody solution was added into the plate and incubated for 2 hours at room temperature. After four times washing with TBS-T, a diluted secondary antibody (goat anti-human IgG-HRP Santa Cruz Cat.sc-2453) was add into the plate and incubated for 1 hour at room temperature. After four times washing with TBS-T, TMB solution was added into the plate and incubated for 15 min at room temperature, then 1N sulfuric acid was added to stop the reaction. The absorbance was measured at 450 nm/570 nm.
In general terms: An ELISA detects its analyte on a solid surface through an enzyme-linked reagent.

Assay [3] has as its target T1, recombinant human latent TGF-beta 1 …. As to the kind of experiment: SPR, Biacore 8K, 37 C, pH 7.4; antibody captured by anti-human Fc, latent TGF-beta 1 as analyte; 1:1 model.
Assay [4] deals with T3, recombinant mouse latent TGF-beta 1 (Flag-tagged mouse latent TGF-beta 1) (mouse, UniProt P04202 34-390).
T3 construct: also called mouse recombinant latent TGF-beta 1
The assay is described as above.

Assay [5] concerns the target T1, recombinant human latent TGF-beta 1 …. Put plainly: SPR, Biacore T200, 37 C, pH 7.4; antibody captured by anti-human Fc, latent TGF-beta 1 at 12.5 to 200 nM as analyte; 1:1 model. How it is done: (§2) The affinities of anti-latent TGF-beta 1 antibodies binding to human or mouse latent TGF-beta 1 at pH 7.4 were determined at 37 degrees C. using Biacore T200 instrument (GE Healthcare). Anti-human Fc (GE Healthcare) was immobilized onto all flow cells of a CM4 sensor chip using an amine coupling kit (GE Healthcare). All antibodies and analytes were prepared in ACES pH 7.4 containing 20 mM ACES, 150 mM NaCl, 1.2 mM CaCl₂), 0.05% Tween 20, 0.005% NaN3. Each antibody was captured onto the sensor surface by anti-human Fc. Antibody capture levels were aimed at 300 resonance unit (RU). For TBA865 and TBA873, recombinant human or mouse latent TGF-beta 1 was injected at 12.5 to 200 nM prepared by two-fold serial dilution, followed by dissociation. For TBS139 and TBS182, recombinant human or mouse latent TGF-beta 1 was injected at 3.125 to 50 nM prepared by two-fold serial dilution, followed by dissociation. The sensor surface was regenerated each cycle with 3M MgCl2.
This is another data set of the same source.

In assay [6] the target is T3, recombinant mouse latent TGF-beta 1 …. Described as above. How it is done:
as §2

The target of assay [7] is T4, human cell surface latent TGF-beta 1 (human, UniProt P01137 30-390).
T4 construct: also called cell surface human latent TGF-beta 1
Put plainly: FACS on FreeStyle 293-F cells, PE-labelled secondary antibody, MFI. How it is done: (§3) Anti-latent TGF-beta 1 antibodies were incubated with each cell line for 30 minutes at 4 degrees C. and washed with FACS buffer (2% FBS, 2 mM EDTA in PBS). Anti-KLH antibody (IC17) was used for a negative control antibody. Goat F(ab′)2 anti-Human IgG, Mouse ads-PE (Southern Biotech, Cat. 2043-09) or Goat F(ab′)2 anti-Mouse IgG(H+L), Human Ads-PE (Southern Biotech, Cat. 1032-09) was then added and incubated for 30 minutes at 4 degrees C. and washed with FACS buffer. Data acquisition was performed on an FACS Verse (Becton Dickinson), followed by analysis using FlowJo software (Tree Star) and GraphPad Prism software (GraphPad).

Assay [8] deals with T5, mouse cell surface latent TGF-beta 1 (mouse, UniProt P04202 30-390).
T5 construct: Endogenous latent TGF-beta 1 (forming LLC) on Ba/F3 cells, and the latent TGF-beta 1 of mouse PBMC in the co-culture assay; also called cell surface mouse latent TGF-beta 1; latent TGF-beta 1 on Ba/F3 cells
As to the kind of experiment: FACS on Ba/F3 cells, PE-labelled secondary antibody, MFI. How it is done: as §3

Assay [9] deals with T1, recombinant human latent TGF-beta 1 …. As to the kind of experiment: SPR, Biacore T200, 37 C, pH 7.4; antibody captured by anti-human Fc, latent TGF-beta 1 injected at 3.125 to 50 nM. How it is done:
as §2

In assay [10] the target is T3, recombinant mouse latent TGF-beta 1 …. As to the kind of experiment: SPR, Biacore T200, 37 C, pH 7.4; antibody captured by anti-human Fc, latent TGF-beta 1 at 3.125 to 50 nM as analyte; 1:1 model. How it is done: as §2

T2 sequence (P04202 279-390 limits assumed): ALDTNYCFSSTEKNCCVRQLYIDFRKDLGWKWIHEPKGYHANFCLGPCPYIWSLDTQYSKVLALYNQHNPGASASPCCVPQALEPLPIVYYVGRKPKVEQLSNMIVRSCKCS
T3 sequence (P04202 other isoform, or with tags, fused parts or gaps limits assumed): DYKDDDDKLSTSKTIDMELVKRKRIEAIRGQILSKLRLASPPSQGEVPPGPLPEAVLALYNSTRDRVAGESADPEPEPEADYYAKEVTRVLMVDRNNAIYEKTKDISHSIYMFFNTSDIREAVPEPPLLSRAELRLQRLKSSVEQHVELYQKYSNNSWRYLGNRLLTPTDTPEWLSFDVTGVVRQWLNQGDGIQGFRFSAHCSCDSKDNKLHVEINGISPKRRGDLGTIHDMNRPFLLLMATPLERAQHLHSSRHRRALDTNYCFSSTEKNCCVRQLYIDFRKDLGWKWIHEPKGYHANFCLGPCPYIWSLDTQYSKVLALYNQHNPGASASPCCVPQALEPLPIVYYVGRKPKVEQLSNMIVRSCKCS
T1 sequence (P01137 other isoform, or with tags, fused parts or gaps limits assumed): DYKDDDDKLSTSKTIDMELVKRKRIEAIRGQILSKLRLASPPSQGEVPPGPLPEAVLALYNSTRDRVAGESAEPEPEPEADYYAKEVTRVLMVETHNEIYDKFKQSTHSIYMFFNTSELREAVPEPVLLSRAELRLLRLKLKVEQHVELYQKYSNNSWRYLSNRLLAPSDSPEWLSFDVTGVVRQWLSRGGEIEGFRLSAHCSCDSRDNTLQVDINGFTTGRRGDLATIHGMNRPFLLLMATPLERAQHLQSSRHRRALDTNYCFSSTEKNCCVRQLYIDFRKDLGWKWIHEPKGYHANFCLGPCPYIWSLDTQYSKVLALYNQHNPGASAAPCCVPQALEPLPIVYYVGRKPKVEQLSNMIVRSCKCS
T5 sequence (P04202 30-390): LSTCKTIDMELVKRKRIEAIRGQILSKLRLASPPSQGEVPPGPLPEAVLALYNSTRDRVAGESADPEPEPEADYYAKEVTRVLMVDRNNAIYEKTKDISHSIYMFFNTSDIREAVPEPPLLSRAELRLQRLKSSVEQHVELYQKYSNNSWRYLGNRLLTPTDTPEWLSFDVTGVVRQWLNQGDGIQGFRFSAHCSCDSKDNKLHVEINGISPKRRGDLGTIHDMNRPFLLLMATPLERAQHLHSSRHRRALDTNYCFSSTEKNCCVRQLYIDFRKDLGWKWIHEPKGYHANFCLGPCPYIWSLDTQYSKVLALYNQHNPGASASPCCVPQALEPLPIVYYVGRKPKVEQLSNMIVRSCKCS
T4 sequence (P01137 30-390): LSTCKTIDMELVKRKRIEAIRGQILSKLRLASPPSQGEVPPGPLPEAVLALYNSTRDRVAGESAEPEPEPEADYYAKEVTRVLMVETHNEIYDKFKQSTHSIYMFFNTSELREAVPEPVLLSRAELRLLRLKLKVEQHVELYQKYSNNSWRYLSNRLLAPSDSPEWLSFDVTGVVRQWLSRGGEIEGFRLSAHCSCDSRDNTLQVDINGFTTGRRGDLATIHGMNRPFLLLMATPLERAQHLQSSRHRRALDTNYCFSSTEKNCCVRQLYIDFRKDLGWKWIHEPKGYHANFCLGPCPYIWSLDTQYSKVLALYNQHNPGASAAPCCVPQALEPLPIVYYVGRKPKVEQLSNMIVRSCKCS

B1: TBA1314 (antibody, human IgG1, kappa, V domains shown)
VH: QSVEESGGRLVTPGTPLTLTCTVSGFSLSNYAMTWVRQAPGKGLEWIGVIYAGGNTYYANWVNGRFTISKTSTTVDLKITSPTTEDTATYFCARDVGSSSSGVYFNIWGPGTLVTVSS
VL: AYDMTQTPASVEVAVGGTVTIKCQASQSIGSRLAWYQQKPGQPPKLLIYDASTLASGVSSRFKGSGSGTEFTLTISGVECADAATYYCQQDYSYRHVDNIFGGGTKVEIKR
notes: also called TBA1314aa-F1332m
For the molecule B1, the association rate constant (kon) in assay [1] stood at 402000 M⁻¹ s⁻¹. For the same molecule, in assay [2], the dissociation constant (Kd) is at most 7.38 pM and the koff was below 1e-05 s⁻¹.

B2: TBA0947 (antibody, human IgG1, kappa, V domains shown)
VH: QSVEESGGRLVTPGTPLTLTCTVSGFSLSSYAMNWVRQAPGKGLEWIGYIYTSGTTYHANWARGRFTISKTSTTVDLKMTSLTTEDTATYFCARGTGISDYYYWVMDLWGPGTLVTVSS
VL: AFELTQTPSSVEAAVGGTVTIKCQASQSISTYLAWYQQRPGQPPKLLIYKASTLASGVPSRFKGSGSGTDFTLTISDLECADAATYFCQSYCDGDSVGFGGGTKVEIKR
notes: also called TBA0947gg-F1332m; TBA947
Turning to B2, in the assay with mouse mature TGF-beta 1, the binding result was “no binding (tested: 10 µg/mL)”. Besides, in assay [3], the Kd stood at 7.65 nM, the koff amounted to 0.00224 s⁻¹ and the association rate constant (kon) amounted to 292000 M⁻¹ s⁻¹. For the same molecule, in assay [4], the Kd amounted to 0.0419 nM, the off-rate constant (koff) turned out to be 1.07e-05 s⁻¹ and the kon was 256000 M⁻¹ s⁻¹.

B3: TBA1277 (antibody, human IgG1, kappa, V domains shown)
VH: QSVEESGGRLVTPGTPLTLTCTASGFSLSNYDMSWVRQAPGKGLEWIGNIHTADTTSYARWAKGRFTISKTSTTVDLKITSPTSEDTATYFCARGGSDFFYYEPYNIWGPGTLVTVSS
VL: AYDMTQTPASVEAAVGGTVTVRCQASESIGSRLAWYQQKVGQPPKLLIYDASTLASGVSSRFKGSGSGTEFTLTISDLECDDAATYYCQQYYTSNNVENTFGGGTKVEIKR
notes: also called TBA1277cc-F1332m
Consider B3, for which, in [1], the dissociation constant Kd was determined as 0.0188 nM, the koff turned out to be 1.63e-05 s⁻¹ and the on-rate (kon) is 867000 M⁻¹ s⁻¹.

B4: TBA0946 (antibody, human IgG1, kappa, V domains shown)
VH: QSLEESGGRLVTPGTPLTLTCTTSGFSLNNYYMNWVRQAPGKGLEWIGLTDNDGTTYYANWAKGRFTVSKTSTTVDLKMTSPTTEDTATYFCVRDAGYSRNLWGPGTLVTVSS
VL: AYDMTQTPASVEVAVGGTVTIKCQASQSISSSLAWYQQKPGQPPKQLIYRASTLASGVSSRFKGSGSGTQFTLTISGVECADAATYYCQQTYSWSGLDNVFGGGTKVEIKR
notes: also called TBA0946bb-F1332m; TBA946
Regarding B4, in the assay with mouse mature TGF-beta 1, the binding result is given as “no binding (tested: 10 µg/mL)”. In addition, in assay [4], the Kd turned out to be 0.0793 nM, the koff is 7.66e-05 s⁻¹ and the on-rate (kon) was determined as 966000 M⁻¹ s⁻¹.

B5: TBA865 (antibody, human IgG1, kappa, V domains shown)
VH: QSLEESGGRLVTPGGSLTLTCTVSGIDLSSYAMGWVRQAPGKGLEYIGIISSSGLTDYASWVNGRFTISKTSTTVDLKITSPTTEDTATYFCARIYDLWGPGTLVTVSS
VL: DIVMTQTPASVEAAVGGTLTIKCQASQSISDQLSWYQQKPGQPPKLLIYRASTLESGVPSRFKGSGSGTQFTLTISDLECADAATYYCQSYYYSYSSTYGNTFGGGTKVEIKR
Regarding B5, the dissociation constant (Kd) in assay [5] was 0.16 nM; in assay [6] it was 0.158 nM. Further, the figures for the off-rate (koff) in assay [5] and in assay [6] were 6.55e-05 s⁻¹ and 5.37e-05 s⁻¹, respectively. Also, the figures for the on-rate (kon) in assay [5] and in assay [6] were 410000 M⁻¹ s⁻¹ and 341000 M⁻¹ s⁻¹, respectively. The binding result in [7] and in assay [8] was “no binding” each time.

B6: TBA873 (antibody, human IgG1, kappa, V domains shown)
VH: B5 VH with S52N, P82L
VL: B5 VL with L19V, D31N, E55A, P59S, D82A, Y95V
For the molecule B6, in [5], the dissociation constant Kd came out at 0.292 nM, the koff was determined as 6.72e-05 s⁻¹ and the on-rate constant (kon) came to 230000 M⁻¹ s⁻¹. In assay [6], the Kd amounted to 0.276 nM, the koff was 5.15e-05 s⁻¹ and the kon came out at 187000 M⁻¹ s⁻¹. In addition, the binding result in [7] was “no binding”. Also, the binding result in assay [8] is listed as “no binding”.

B7: TBS139 (antibody, mouse IgG1, kappa, V domains shown)
VH: QSLEESGGDLVKPGASLTLTCTASGFSFSSYWMSWVRQAPGKGLEYIGMISIIGTTYYASWAKGRFTISKTSSTTVTLQVTSLTAADTATYFCARGYVSNSNYWGLWGPGTLVTVSS
VL: AYDMTQTPASVEVAVGGTVTIKCQASQNIGSNLAWYQQKPGQPPKLLIYYASDLASGVPSRFKGSGSGTRYTLTISGVQCDDAATYYCQQYWSSSNVDNTFGGGTEVVVKR
On to B7, for which the binding result in assay [9] was “no binding (tested: 50 nM)”. In [10], the dissociation constant (Kd) was 0.0225 nM, the koff worked out at 3.96e-05 s⁻¹ and the on-rate constant (kon) stood at 1.76e+06 M⁻¹ s⁻¹.

B8: TBA1172 (antibody, human IgG1, kappa, V domains shown)
VH: QSVEESGGRLVTPGTPLTLTCTVSGFSLSNYAMGWVRQAPGKGLEWIGIISSGGVSYYASWARGRFTISKTSTTVDLKITSPTPEDTGTYFCARGQVPSSDTYYVPFNLWGPGTLVTVSS
VL: DIAMTQTPASVEAAVGGTVTIKCQASQSIGSDLAWYQQKPGQPPKLLIYRASTLASGVPLRFKGSGSGTQFTLTISDLECADAATYYCQTYYFTISSYGAFGGGTKVEIKR
notes: also called TBA1172aa-F1332m; TBS1172
For the molecule B8, the binding result in the assay with mouse mature TGF-beta 1 is listed as “no binding (tested: 10 µg/mL)”. In addition, in [3], the equilibrium dissociation constant (Kd) was 88 nM, the koff came to 0.0229 s⁻¹ and the on-rate (kon) was found to be 261000 M⁻¹ s⁻¹. Besides, in [4], the dissociation constant Kd was 0.0919 nM, the koff was 9.13e-05 s⁻¹ and the kon came to 994000 M⁻¹ s⁻¹.

B9: TBA1300 (antibody, human IgG1, kappa, V domains shown)
VH: QEQLKESGGGLVTPGGTLTLTCTVSGFSLSNYDMSWVRQAPGKGLEWIGAIYTAGTTSYASWAKGRFTISKTSTTVDLKITSPTTEDTATYFCARGGSSFFYYAAHNIWGPGTLVTVSS
VL: AYDMTQTPASVEAAVGGTVTIKCQASQSIGSNLAWYQQKPGQPPKLLIYDASKLPSGVPSRFKGSGSGTEFTLTISDLECDDAATYYCQQYYTTSDVDNTFGGGTKVEIKR
notes: also called TBA1300ff-F1332m
Take B9: in assay [1], the equilibrium dissociation constant (Kd) was 0.0389 nM, the off-rate (koff) came to 2.31e-05 s⁻¹ and the association rate constant (kon) was determined as 593000 M⁻¹ s⁻¹.
